From the DeepSol protein solubility set

Experiment: soluble on expression in E. coli; label from the status in PepcDB or PDB records

Sequence	soluble on expression in E. coli
MVPEVFAQARLRMDQLTKPPRALGYLEEVALRLAALQGRVKPELGRGAVVVAAADHGVVAEGVSAYPQEVTRQMVLNFLRGGAAINQFALAADCAVYVLDVGVVGELPDHPGLLKRKVRPGTANLAQGPAMTPEEAERALLAGREAARRAIAEGATLLAAGDMGIGNTTAAAALTAALLGLPPEAVVGRGTGVGEEGLRRKRQAVARALARLHPGMGPLEVAAEVGGIELVAIAGIYLEGYEAGLPLVLDGFPVTAGALLAWKMAPGLRDHLFAGHLSREPGHRHQLEALGLRPLLDLDLALGEGTGAVLAMPLLRAAARILHMATFQEAGVSRG	soluble
SIAYIEPYFLENDAEAASAATAAGKSTDGVSESLNIQGEILCGGAAADIAGRDFGGMNCVKPLAVVRPVGPEDIAGAVKAALRSDKLTVAARGNGHSINGQAMAEGGLVVDMSTTAENHFEVGYLSGGDATAFVDVSGGALWEDVLKRCVSEYGLAPRSWTDYLGLTVGGTLSNAGVSGQAFRYGPQTSNVTELDVVTGNGDVVTCSEIENSELFFSVLGGLGQFGIITRARVLLQPAPDMVRWIRVVYTEFDEFTQDAEWLVSQKNESSFDYVEGFVFVNGADPVNGWPTVPLHPDHEFDPTRLPQSCGSVLYCLELGLHYRDSDSNSTIDKRVERLIGRLRFNEGLRFEVDLPYVDFLLRVKRSEEIAKENGTWETPHPWLNLFVSKRDIGDFNRTVFKELVKNGVNGPMLVYPLLRSRWDDRTSVVIPEEGEIFYIVALLRFVPPCAKVSSVEKMVAQNQEIVHWCVKNGIDYKLYLPHYKSQEEWIRHFGNRWSRFVDRKAMFDPMAILSPGQKIFNRSL	soluble
MEQKYEEDIQKLQQEIEMLEAEQEETLRSIFVQHGDRLQQGVKSACEERGGGGAQQHTLSKLITEVRELEKDLRRQTEINGITLNECFVKTLHKSERKLIQQLRLAGHCGLLLFQVEFAVTEIQEDNVLHRRVTELNIVVDGVEFKDFSAFVSRVEDTKDLLLFFRTLRTFSERCEDRRQTFQHFQEKYPDVVNLPEGCRSEIMIIRSPQLPGISMTLFWKIHVSKEGVVKPLLDLLLKMPDQALELDTKKVMEKASDYFQSLLQLLGVEASIEGLIRTVCS	not soluble
MSEPIDILIAGAGIGGLSCALALHQAGIGKVTLLESSSEIRPLGVGINIQPAAVEALAELGLGPALAATAIPTHELRYIDQSGATVWSEPRGVEAGNAYPQYSIHRGELQMILLAAVRERLGQQAVRTGLGVERIEERDGRVLIGARDGHGKPQALGADVLVGADGIHSAVRAHLHPDQRPLSHGGITMWRGVTEFDRFLDGKTMIVANDEHWSRLVAYPISARHAAEGKSLVNWVCMVPSAAVGQLDNEADWNRDGRLEDVLPFFADWDLGWFDIRDLLTRNQLILQYPMVDRDPLPHWGRGRITLLGDAAHLMYPMGANGASQAILDGIELAAALARNADVAAALREYEEARRPTANKIILANREREKEEWAAASRPKTEKSAALEAITGSYRNQVERPRLEHHHHHH	soluble
MSLGLVVLKFGGTSVSTVDKIGKTADQAIYEKKQGNKVIVVVSAMGKSTDKLVAMAEEISEAPDKREMDMLLSTGEQITIALLAMTLKEKGHDAISYTGWQAGIETEAVHSNARIADIDSARIESALDAGQIVVVAGFQGFTTDGEITTLGRGGSDTTAVAIASALNAEKCAICTDVVGVFTTDPRYVKKAQKLEQITYDEMLELANLGAGVLHPRSVEYAKNFRIPLEVRASHEQVPGTMIEEDLTMENTKVVRGIAFEDQITRVTIHWKQKEAMRVSKVFTKLAENNIDVDIIIQGITGLGHGNLSFTIKTSALLATLAVLEESKELLQIEKLESEQELAKVSIVGSGMVSNPGVAAQMFEALTENNIPIKMISTSEIKVSTVVPARKMVEAAQVLHDQFELDKEGHHHHHH	not soluble
MGSDKIHHHHHHMRFGWLEQPFTTLEQLDSLFEIHSPRKFTFADSFYAHENGRHFIFFEEVDDQHPVGFLSVLEVFKDGTYTPPETILKLDYHLSYPCVFKIDSTWYMIPESSANKTIELWKCTDFPMKWEKHSNLMENIEAVDSTPFYHEGLWYLFTSTRRDCKKFGDRLDLFFTEDILNPNWQEHPMNPACRGSQQFRMAGKPFIYKGQLVRPSQDSLKRYGGNIELKAITQLSPAAYEEKLLEVVLPDWNQADDGCHTINVEDNFVVLDAIRLTPKNN	not soluble
